Here are results for 7 molecules from patent publication US20240132883A1, “RNA-TRIGGERED PROTEIN CLEAVAGE AND APPLICATIONS BY THE CRISPR CAS7-11-CSX29 COMPLEX” (Massachusetts Institute of Technology, published 2024).

Series [1] concerns T1, D. ishimotonii Csx30, full-length.
T1 sequence: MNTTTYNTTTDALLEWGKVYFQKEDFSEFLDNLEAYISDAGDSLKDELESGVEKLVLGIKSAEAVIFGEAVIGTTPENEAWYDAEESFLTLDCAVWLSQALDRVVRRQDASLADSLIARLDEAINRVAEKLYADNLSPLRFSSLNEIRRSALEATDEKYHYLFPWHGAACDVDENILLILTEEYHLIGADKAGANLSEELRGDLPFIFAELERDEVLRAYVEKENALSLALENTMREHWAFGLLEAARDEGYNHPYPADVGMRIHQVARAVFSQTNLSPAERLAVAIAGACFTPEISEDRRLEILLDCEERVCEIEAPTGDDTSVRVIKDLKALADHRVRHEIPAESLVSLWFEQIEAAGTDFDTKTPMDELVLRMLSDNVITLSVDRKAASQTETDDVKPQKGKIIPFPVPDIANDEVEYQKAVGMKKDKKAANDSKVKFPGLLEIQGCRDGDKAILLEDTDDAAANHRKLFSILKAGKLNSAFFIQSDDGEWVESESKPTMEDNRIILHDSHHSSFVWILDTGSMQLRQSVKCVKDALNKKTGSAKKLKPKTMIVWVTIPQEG

Series [2] deals with Cas7-11-Csx29 complex (mammalian codon-optimized) (Desulfonema ishimotonii). Nature of the series: cell_activity. The settings on record: HEK293FT, citrine-Csx30-DHFR degron reporter.
Series [3] deals with N-terminally FLAG-tagged citrine-Csx30-degron reporter (Desulfonema ishimotonii). In words: cell-based or functional assay.
In series [4] the target is T2, dCas7-11-Csx29 complex (Cas7-11 D429A/D654A with Csx29) (Desulfonema ishimotonii). Nature of the series: structure; cryo-EM 2.84 A; guide-target duplex with U4/C10 flipped out; PFS C(-1) and A(-2) contacted; no PAM; 1 mM MgCl2. The note with it: tags: MBP-Cas7-11-His6; His6-Twin-Strep-SUMO-Csx29. As to the method: (§1) The Cas7-11-crRNA-Csx29-tgRNA complex was reconstituted by mixing the purified Cas7-11-crRNA-Csx29 complex and the target RNA, at a molar ratio of 1:4. The complex was purified by size-exclusion chromatography on a Superose 6 Increase 10/300 column (GE Healthcare), equilibrated with buffer E (20 mM HEPES-NaOH, pH 7.0, 150 mM NaCl, 1 mM MgCl₂, and 1 mM DTT). The peak fraction containing Cas7-11-crRNA-Csx29-tgRNA was analyzed by TBE-urea gel, and concentrated to an A₂₆₀ of 3.0, using an Amicon Ultra-4 Centrifugal Filter Unit (MWCO 50 kDa). Cryo-EM grids were glow-discharged using PIB-10 Ion Bombarder (JEOL, Japan) with 10 mA current for 3 min. The sample (3 μL) was applied to freshly glow-discharged Au 300 mesh R1.2/1.3 grids (Quantifoil) in a Vitrobot Mark IV (FEI) at 4° C. under 100% humidity conditions, and the excess solution of the sample was blotted with filter paper (Agar Scientific) with a waiting time of 10 s and a blotting time of 4 s. The grids were plunge-frozen into liquid ethane cooled at liquid nitrogen temperature. […] The sample was applied onto freshly glow-discharged Au 300 mesh R0.6/1 grids (Quantifoil) in a Vitrobot Mark IV under similar conditions to those for the Cas7-11-crRNA-Csx29-tgRNA complex. […] Micrographs were recorded at a nominal magnification of ×105,000 with a pixel size of 0.83 Å in a total exposure of 48 e⁻/Å² per 48 frames with exposure time of 2.5 s. […]

Series [5] addresses T2, dCas7-11-Csx29 complex (Cas7-11 …). In words: structure; cryo-EM 2.49 A, target-free; 5' tag anchored by Cas7.1/Cas7.2. The note with it: tags: MBP-Cas7-11-His6; His6-Twin-Strep-SUMO-Csx29. As to the method:
as §1

Series [6] concerns the target T3, D. ishimotonii Csx30, full-length.
T3 chain: T1 sequence

Series [7] has as its target T4, N-terminal fragment of Csx30 (residues 1-427) (Desulfonema ishimotonii).
T4 construct: Made by Csx29 cleavage of Csx30 in the gel-filtration experiment; expressed as such in the growth assays; also called Csx30-1
T4 chain: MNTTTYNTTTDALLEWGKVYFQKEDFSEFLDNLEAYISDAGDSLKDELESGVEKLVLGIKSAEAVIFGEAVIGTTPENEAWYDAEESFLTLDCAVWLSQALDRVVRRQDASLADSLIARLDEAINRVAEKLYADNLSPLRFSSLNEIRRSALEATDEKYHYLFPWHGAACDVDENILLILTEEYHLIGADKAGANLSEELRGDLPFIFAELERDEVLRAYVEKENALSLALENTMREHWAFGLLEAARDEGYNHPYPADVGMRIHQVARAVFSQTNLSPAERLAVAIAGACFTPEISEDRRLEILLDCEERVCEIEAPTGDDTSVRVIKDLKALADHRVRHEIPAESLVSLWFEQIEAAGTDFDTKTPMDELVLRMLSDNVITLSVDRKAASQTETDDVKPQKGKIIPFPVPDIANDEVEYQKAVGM
Nature of the series: gel filtration (Superdex 200 Increase) and SDS-PAGE after cleavage by dCas7-11-crRNA-Csx29-tgRNA. Background: In gel filtration, larger molecules generally elute earlier.

Entries after “also recorded” stand apart in the source; their conditions may differ. Read-outs that look alike come from different tables or passages of the source.

T2 sequence (chain, as listed by the source D429A D654A D429A D654A): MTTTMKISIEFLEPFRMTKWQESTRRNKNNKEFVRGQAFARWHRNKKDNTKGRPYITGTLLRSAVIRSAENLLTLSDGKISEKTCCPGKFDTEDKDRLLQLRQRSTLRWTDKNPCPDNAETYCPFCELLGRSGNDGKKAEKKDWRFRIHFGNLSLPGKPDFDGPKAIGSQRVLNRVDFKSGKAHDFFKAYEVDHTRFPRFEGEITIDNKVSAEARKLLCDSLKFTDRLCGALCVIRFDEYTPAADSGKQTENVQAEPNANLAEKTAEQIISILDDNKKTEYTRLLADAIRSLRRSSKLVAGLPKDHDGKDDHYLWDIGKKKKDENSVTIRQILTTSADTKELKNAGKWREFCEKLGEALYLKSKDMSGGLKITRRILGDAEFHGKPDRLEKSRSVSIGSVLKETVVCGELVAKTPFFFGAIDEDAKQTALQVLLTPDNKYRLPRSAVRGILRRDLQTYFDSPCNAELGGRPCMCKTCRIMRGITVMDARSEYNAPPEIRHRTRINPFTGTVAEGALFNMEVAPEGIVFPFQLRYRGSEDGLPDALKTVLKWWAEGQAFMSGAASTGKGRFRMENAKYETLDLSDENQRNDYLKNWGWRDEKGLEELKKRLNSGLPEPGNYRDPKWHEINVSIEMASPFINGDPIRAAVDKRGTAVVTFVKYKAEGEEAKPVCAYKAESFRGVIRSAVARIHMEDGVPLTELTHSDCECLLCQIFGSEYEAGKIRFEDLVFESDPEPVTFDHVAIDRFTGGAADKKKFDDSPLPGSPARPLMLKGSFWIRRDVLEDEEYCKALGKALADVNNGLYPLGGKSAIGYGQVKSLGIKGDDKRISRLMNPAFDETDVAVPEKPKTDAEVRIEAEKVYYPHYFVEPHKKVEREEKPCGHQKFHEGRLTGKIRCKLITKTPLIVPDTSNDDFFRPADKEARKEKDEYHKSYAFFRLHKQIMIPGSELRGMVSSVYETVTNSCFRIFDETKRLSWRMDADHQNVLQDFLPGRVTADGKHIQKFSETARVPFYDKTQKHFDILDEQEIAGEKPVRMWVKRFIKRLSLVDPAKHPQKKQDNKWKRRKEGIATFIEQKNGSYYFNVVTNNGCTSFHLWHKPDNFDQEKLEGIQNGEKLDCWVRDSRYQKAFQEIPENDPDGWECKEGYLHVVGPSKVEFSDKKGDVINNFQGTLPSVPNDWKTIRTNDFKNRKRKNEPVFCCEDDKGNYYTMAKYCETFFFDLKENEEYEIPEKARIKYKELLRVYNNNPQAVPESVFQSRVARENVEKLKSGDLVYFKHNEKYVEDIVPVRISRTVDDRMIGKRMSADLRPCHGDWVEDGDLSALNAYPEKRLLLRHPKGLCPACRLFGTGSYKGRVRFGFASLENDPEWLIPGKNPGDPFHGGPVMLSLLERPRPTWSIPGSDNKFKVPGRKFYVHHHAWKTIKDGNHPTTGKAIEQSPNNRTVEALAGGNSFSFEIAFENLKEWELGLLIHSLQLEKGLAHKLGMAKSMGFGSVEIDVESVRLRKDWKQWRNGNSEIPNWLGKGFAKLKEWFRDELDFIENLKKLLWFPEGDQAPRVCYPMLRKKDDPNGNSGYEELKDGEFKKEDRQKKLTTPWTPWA
Cas7-11-Csx29 complex (mammalian codon-optimized) (Desulfonema ishimotonii), sequence (chain, as listed by the source): as the sequence (chain, as listed by the source D429A D654A D429A D654A) above, with A429D, A654D counted along it

Turning to “Csx29 H615A/C658A (catalytically inactivated Csx29)”, the “in vitro cleavage of Csx30 (SDS-PAGE)” value in series [1] is “The H615A/C658A mutations in Csx29 abolished the Csx30 cleavage”. As to “Gluc-targeting guide RNA ; Gaussia luciferase mRNA target”, the activity (fold citrine fluorescence) in series [2] stood at 3. “Csx29, mammalian codon-optimized, expressed in HEK293FT cells with Cas7-11 (enzyme)” had a citrine fluorescence in HEK293FT cells in series [3] of 3 fold.

B1: crRNA (38 nt, 15-nt 5' tag + 23-nt spacer) ; target RNA with non-matching PFS (tgRNA/CTR) (ssRNA ; ssRNA)
RNA 1: UUGAUGUCACGGAACCUUUGUUGUCUUCGACAUGGGUA
RNA 2: GGAUUACCCAUGUCGAAGACAACAAAGCAAGGC
As for B1, in series [4], the binding result was “binds”. UUGAUGUCACGGAACCUUUGUUGUCUUCGACAUGGGUA (ssRNA) [crRNA (38 nt, 15-nt 5' tag + 23-nt spacer)]: the binding result in series [5] is given as “binds”.

B2: D. ishimotonii Csx29, expressed as His6-Twin-Strep-SUMO-Csx29 (protein)
chain: HHHHHHMSNPIRDIQDRLKTAKFDNKDDMMNLASSLYKYEKQLMDSSEATLCQQGLSNRPNSFSQLSQFRDSDIQSKAGGQTGKFWQNEYEACKNFQTHKERRETLEQIIRFLQNGAEEKDADDLLLKTLARAYFHRGLLYRPKGFSVPARKVEAMKKAIAYCEIILDKNEEESEALRIWLYAAMELRRCGEEYPENFAEKLFYLANDGFISELYDIRLFLEYTEREEDNNFLDMILQENQDRERLFELCLYKARACFHLNQLNDVRIYGESAIDNAPGAFADPFWDELVEFIRMLRNKKSELWKEIAIKAWDKCREKEMKVGNNIYLSWYWARQRELYDLAFMAQDGIEKKTRIADSLKSRTTLRIQELNELRKDAHRKQNRRLEDKLDRIIEQENEARDGAYLRRNPPCFTGGKREEIPFARLPQNWIAVHFYLNELESHEGGKGGHALIYDPQKAEKDQWQDKSFDYKELHRKFLEWQENYILNEEGSADFLVTLCREIEKAMPFLFKSEVIPEDRPVLWIPHGFLHRLPLHAAMKSGNNSNIEIFWERHASRYLPAWHLFDPAPYSREESSTLLKNFEEYDFQNLENGEIEVYAPSSPKKVKEAIRENPAILLLLCHGEADMTNPFRSCLKLKNKDMTIFDLLTVEDVRLSGSRILLGACESDMVPPLEFSVDEHLSVSGAFLSHKAGEIVAGLWTVDSEKVDECYSYLVEEKDFLRNLQEWQMAETENFRSENDSSLFYKIAPFRIIGFPAE
With B2, in series [6], the “cleavage of Csx30 within the Csx30-Csx31-DiRpoE complex (gel filtration, SDS-PAGE)” value is “Like isolated Csx30, Csx30 in the Csx30-Csx31-DiRpoE complex was cleaved by the Cas7-11-Csx29 complex”; the “in vitro cleavage of Csx30 (SDS-PAGE)” value was “Cas7-11-crRNA-Csx29 cleaves Csx30 into two fragments, Csx30-1 (-50 kDa) and Csx30-2 (-15 kDa), only in the presence of the tgRNA; also recorded: the D429A/D654A catalytic mutations in Cas7-11 ... unexpectedly, improved the Csx30 cleavage by Csx29”; the “in vitro cleavage of Csx30 (SDS-PAGE) with target RNAs TR, CTR, NTR” value is “Csx30 was cleaved by the Cas7-11-Csx29 complex efficiently in the presence of CTR, but not TR and NTR”.

B3: C-terminal fragment of Csx30 (residues 428-565) (other)
chain: KKDKKAANDSKVKFPGLLEIQGCRDGDKAILLEDTDDAAANHRKLFSILKAGKLNSAFFIQSDDGEWVESESKPTMEDNRIILHDSHHSSFVWILDTGSMQLRQSVKCVKDALNKKTGSAKKLKPKTMIVWVTIPQEG
notes: Made by Csx29 cleavage of Csx30; also called Csx30-2
Turning to B3, the binding result in series [7] is listed as “no binding”.
